Molecular target: T1, 4.1R-CTD64 (last 64 amino acids of the C-terminal domain of human protein 4.1R) (human, 15N labelled)
T1 construct: protein 4.1R, human, last 64 amino acids (part of the C-terminal domain, CTD); Cloned with NdeI into a modified pET15b with a TEV site; also called 4.1R-CTD64 subdomain; 64 amino acids subdomain
T1 chain: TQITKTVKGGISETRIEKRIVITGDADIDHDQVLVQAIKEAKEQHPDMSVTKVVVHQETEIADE
Assay: NMR titration; 15N labelled 4.1R-CTD64 (0.1 mM, 100 mM Na2HPO4, 90% H2O/10% D2O) titrated with NuMA1 peptide up to 20:1, followed by 1H-15N HSQC, pH 4.9, 25°C; chemical shift perturbation analysis
Details: both partners purified

B1: NuMA1 interacting peptide (N1I), residues 1785-1810 of NuMA1 (peptide)
peptide: Ac-DSGRKTRSARRRTTQIINITMTKKLD-NH2
notes: also called NI1; non-phosphorylated NuMA peptide; source: synthetic peptide, bought: Caslo (Denmark)
B1: binds.

— paper PMC2834593, “NMR characterisation of the minimal interacting regions of centrosomal proteins 4.1R and NuMA1: effect of phosphorylation” (BMC Biochemistry, 2010)
